Test results from patent US20040170601A1, “Method of improving the growth performance of an animal” (priority 2001, published 2004).
Where “and” joins values, the source holds several entries; their conditions need not be identical. Equal values may be shown once. Entries after “also recorded” stand apart in the source; their conditions may differ.

Assays:
[1] = test system: cell populations in the blood; assay: Example 9: porcine IL-3 on blood cell populations; format: in vivo, pigs
Experimental: This trial examined the effect of administering recombinant porcine IL-3 protein on cell populations in the blood of pigs.
(§1) The experiment was conducted using medicated feed (Barastoc EziWean 150 then Bunge Grolean) ad libitum in an experimental environment (PC2 containment facilities).
Injections were administered intramuscularly in the hind leg. Pigs were 9 weeks of age at commencement of trial.
Blood samples were taken for haematology on days 0, 1, 2, 3, 4, 7, 9, 11, 15 and 17. Full haematology analysis was performed, using the Abbott Cell-Dyn 3700 and examination of selected smears were done for confirmation.

eosinophils [2] = assay: Example 11: IL-5 and IL-3 on eosinophil production; format: in vivo, pigs; settings: single cytokine 100 μg IM days 0, 3, 7, 10
Description: The aim of this example was to determine if the effects of IL-3 and IL-5 act synergistically to increase eosinophil levels and antibody production.
As IL-3 stimulates the proliferation of pre-active B cells prior to the effects of IL-5, it was believed that administration of both IL-3 and IL-5 would have a greater impact on eosinophil production than the administration of either cytokine alone. An experiment was undertaken using pigs raised under clean PC2 conditions with raised floors. There were 5 treatments with 6 pigs per treatment. Pigs were 5-6 weeks of age. The animals were injected intramuscularly on days 0, 3, 7 and 10 of the experiment with either recombinant cytokines or saline. The treatments include IL-5 and IL-3 alone and given either together at the same time at different sites or to the same animal but with IL-3 being administered one week before IL-5. The treatments were as follows:
Group 3—100 μg IL-3+100 μg IL-5 (separate sites)
The pigs were bled 4 times per week for the first 2 weeks and once per week for the following 2 weeks and haematology measured using a CellDyn machine. Sera were collected also each week and tested for antibody levels.

[3] = Example 8: growth performance of pigs administered IL-3 in a commercial piggery; format: in vivo
Experimental: This trial evaluated the capacity of IL-3 to improve growth performance and immunity of pigs by comparing the growth rate and health of weaner pigs (28 day old weaners is Day 0 of the trial and the weaner period continued for 42 days) through to the finisher stage (Days 93 to 113) and slaughter (133 days after commencing the trial), which were administered with the recombinant porcine cytokine, IL-3, and saline was used as a control, with and without standard weaner medicated water and feed in a commercial piggery environment.
40 pigs per treatment were mixed in groups, with 4 replicates containing standard medicated water and feed and 4 replicates without medicated feed or water.
Overall weights for each group at the start of the experiment were equivalent. All pigs at the start of the trial (Day 0) were 28 day old male weaners.
IL-3 was provided in saline to inject 1 ml/pig.
Weights were measured at start, throughout the experiment and at the end of experiment. The trial continued for 133 days after the commencement ie. final weights were determined and animals slaughtered 133 days after the start of the weaning period. Weaning Days 0-42, Grower period Days 42-93, Finisher period Days 93-133. Treatments were administered during the weaner period only.
Blood and sera samples collected at start (before treatments) and end of the weaner period. Blood and sera were taken prior to injecting samples.
Recombinant porcine IL-3 was expressed in E. coli and purified using a polyHis tag system as described in Example 4. IL-3 was tested for biological activity in a bioassay prior to the start of the experiment.

eosinophils [4] = assay: Example 10: porcine IL-3 on cell populations over a longer duration; format: in vivo, pigs; settings: 100 μg IL-3 twice weekly for 2 weeks, followed to day 57
Experimental: This trial compared the effects of recombinant porcine IL-3 protein on eosinophil numbers in the blood of pigs over 8 weeks.
as §1
Injections were administered intramuscularly in the hind leg. Pigs were 5 weeks of age at commencement of trial. Blood samples were taken for haematology on days 0 (prior to injection), 1, 2, 3, 4, 7, 8, 10, 11, 15, 22, 29, and 57. Full haematology analysis was performed, using the Abbott Cell-Dyn 3700. Examination of selected smears was done for confirmation.

[5] = test system: Actinobacillus pleuropneumoniae; assay: Example 12: Actinobacillus pleuropneumoniae (App) challenge: growth, clinical signs, lung pathology; format: in vivo, pigs
Description: The following experiment was designed to determine whether IL-4 could improve the growth of immunologically challenged pigs compared to saline treated controls and positive controls treated with the non-steroidal anti-inflammatory drug (NSAID) Flunix. It was also devised to determine whether IL-4 could be delivered via plasmids.
Male pigs, with a mean starting weight of 52 kg, were allocated to 5 treatment groups (Table 8). Pigs were housed in group pens, with each pen containing a replicate from each of the treatment groups. Pigs were provided with pelleted feed and water ad libitum.
Recombinant IL-4 and saline were administered as 2 ml doses, given subcutaneously behind the ear. Plasmids were administered in 1 ml doses, given intramuscularly in the hind-leg. Flunix was administered as a 2 ml dose according to the manufacturer's instructions, and delivered intramuscularly in the neck. The timetable of administration is outlined in Table 9 below.
(§2) Due to the intermittent availability of Actinobacillus pleuropneumoniae (App), the App challenge was performed separately on the 2 rooms, resulting in different time schedules for each room, as outlined in Table 9. Prior to each challenge, pigs were treated with recombinant cytokines, flunix or plasmids as described above; the timing of treatments with respect to challenge is described in Table 9. Pigs were anaesthetised and infected intratracheally with 7.5×10^5 […] on day 0.
(§3) Briefly, assays were performed on blood samples using standard techniques, including: white blood cell counts performed using an automated cell counter; differential cell counts performed manually on stained blood smears; lymphocyte subset enumeration via flow cytometry; neutrophil function determined by flow cytometry; lymphocyte proliferation determined using a thymidine incorporation assay in response to mitogens; total IgG and IgA levels were identified using indirect sandwich ELISA; levels of mRNA for pro-inflammatory cytokines was detected by RT-PCR. TNF levels were additionally measured in serum by bioassay using L929 target cells. Pigs were weighed weekly from delivery of plasmids and for 2 weeks after challenge.
IL-4 delivered as a recombinant caused a reduction of 36% in the presence of clinical symptoms compared to pigs treated with saline, while IL-4 delivered in plasmid form produced a reduction of 62% compared to saline-treated controls (45% reduction compared to plasmid-treated controls).
At the conclusion of the trial, pigs were euthanased and the lungs removed for post-mortem examination. Lungs were scored for pleurisy from 0-5 (FIG. 79) and the degree of pleuropneumonia was determined by weighing affected lung and expressed as a percentage of total lung weight (FIG. 80).

IL-6 = assay: Example 12: IL-6 in peripheral blood by RT-PCR after App challenge; format: in vivo, pigs; settings: day 13 after challenge
Experimental: as §2
(§4) […] Blood was assayed for immunological parameters as previously described.
as §3

TNFα = assay: Example 12: TNFα in serum after App challenge (bioassay, L929 target cells); format: in vivo, pigs; settings: day 13 after challenge
Experimental: as §2, §4, §3

[6] = test system: Brachyspira (Serpulina) hyodysenteriae; assay: Example 13: swine dysentery challenge, IL-4 prophylactic; format: in vivo, pigs
Description: The aim of this example was to determine whether IL-4 could improve the health of pigs infected with an enteric inflammatory pathogen causing swine dysentery, Brachyspira (Serpulina) hyodysenteriae. A further aim was to determine whether IL-4 could improve the growth rate of pigs under conditions of challenge with swine dysentery.
Male pigs with a mean starting weight of 6.5 kg, were allocated to treatment groups consisting of eight pigs (Table 10). Pigs were housed in group pens, with each pen containing a replicate from each of the treatment groups. One group of 8 pigs was housed in a separate room and left uninfected to act as untreated controls. Pigs were provided with pelleted feed and water ad libitum.
Prior to swine dysentery challenge, pigs were treated with recombinant IL-4 or saline, as described in Table 10. Cytokines and the antibiotic, Lincocin, were delivered by intramuscular injection at intervals outlined in Table 11. Pigs were infected with Brachyspira hyodysenteriae at day 0, day 1 and day 2, given as an oral bolus of 120ml of spirochaete culture in log phase of growth, containing approximately […] cells.
Faecal swabs and blood samples were taken from each pig at intervals described in Table 11. Faecal swabs were cultured for the presence of spirochaetes. Blood samples were assayed for immunological parameters as described in example 1 above. Pigs were weighed at weekly intervals throughout the experiment, which was terminated by euthanasia on days 19 and 20 after the initial challenge. At post mortem swabs from areas of the hindgut were cultured for the presence of spirochaetes, and the gross pathological condition of the gastro-intestinal tissue noted.

[7] = day 7 prior to challenge to slaughter at days 19 and 20

## interleukin 3 [IL-3]
[1]; 100 μg IL-3 daily for 5 days
  absolute eosinophils in blood: increase in eosinophils
[1]; 500 μg IL-3 single dose on day 0
  absolute eosinophils in blood: smaller increases
[1]; pig, in vivo
  basophil numbers: increase in basophil numbers
  eosinophil index (area under the curves): although there was a biological trend it was not statistically significant
Eosinophils [2]
  eosinophils as a percent of white blood cells: did not significantly increase the percentage of eosinophils; also recorded: minor increases in comparison
[3]; medicated
  average warm carcass weight at slaughter above respective saline control: approximately 4 kg/pig
  average weights during the trial: consistently showed higher average weights than all other groups
  final average weight higher than saline medicated control: over 3.5 kg
  increase in total weight of all pigs compared to saline medicated group: approximately 10%
  individual weight range: more consistent weight range than other groups
[3]; medicated and un-medicated
  rate of gain during the weaner period: increased the rate of gain over the medicated and un-medicated saline controls
[3]; medicated, finisher stage
  FCR (food conversion ratio): 2.52
[3]; un-medicated
  % dressing: substantially higher % dressing than the respective un-medicated saline control
  average warm carcass weight at slaughter above respective saline control: ~2 kg/pig
Eosinophils [4]
  absolute numbers of eosinophils in peripheral blood: statistically significant increase in eosinophils

B1: interleukin 4 (protein, UniProt Q04745 25-133, looked up)
Interleukin-4: HKCDITLQEIIKTLNILTARKNSCMELPVTDVFAAPENTTEKETFCRASTVLRHIYRHHTCMKSLLSGLDRNLSSMANMTCSVHEAKKSTLKDFLERLKTIMKEKYSKC
notes: recombinant IL-4 protein
[5]; 30 visits in first week of challenge
  reduction in the presence of clinical symptoms compared to saline: 36%
[5]; after 2 weeks of challenge
  heavier than saline treated peers at the termination of the experiment: 4.8 kg
  improvement in growth vs saline: 73%
[5]; first week of challenge
  clinical signs of disease: slightly reduced clinical signs of disease compared to saline-treated controls
[5]; pig, in vivo
  growth during the (first) week of App challenge: positive growth during the week of challenge
  growth in the second week of challenge: continued to gain weight
  pleurisy at necropsy (score 0-5): same level of pleurisy as saline-treated controls
  weight gain over the 2 week period following challenge with App: increased weight gain compared to saline-treated controls, although this result was not statistically significant
[5]; vs saline-treated controls
  percentage of lung affected by App lesions: greatly reduced
IL-6
  production of IL-6: undetectable levels
TNFα
  TNFα production (serum): reduced levels of TNF production
[6]; after challenge
  spirochaete shedding in faeces (faecal culture): decreasing levels of spirochaete shedding by day 14 after challenge
[6]; anterior colon
  reduction in the number of spirochaetes compared to saline treated pigs: 93%
[6]; anterior colon, post mortem
  gross pathology associated with dysentery: reduced the signs of pathology associated with dysentery, and the severity of the pathology compared to saline in the anterior colon
[6]; caecum
  reduction in the number of spirochaetes compared to saline treated pigs: 91%
[6]; [7]
  improvement in gain compared to saline or antibiotic treatment: 24%
  total weight gained over the challenge period: 8.5 kg
[6]; days 19 and 20
  improvement in end weight vs saline treated pigs: 11% and 12%
[6]; days 19 and 20 after infection
  mean weight at the end of the trial: 15.1 kg
[6]; faecal
  reduction in the number of spirochaetes compared to saline treated pigs: 86%
[6]; pig, in vivo
  heavier than pigs treated with Lincocin at the end of the trial: 15%
  number of spirochaetes cultured from the hindgut at post mortem: significantly reduced the number of spirochaetes residing in the gut compared to saline controls; also recorded: performed as well as the Lincocin antibiotic treatment in reducing the number of spirochaetes in the caecum and colon
  variability of weight: reduce variability by increasing the weight gained by smaller pigs
[6]; post mortem
  incidence of clinical signs in faeces (of 8 pigs): 3 pigs
  pigs showing bloody and mucoid faeces (of 8 pigs): 1 pig
[6]; posterior colon
  reduction in the number of spirochaetes compared to saline treated pigs: 84%
[6]; posterior colon, post mortem
  gross pathology associated with dysentery: completely prevented the development of pathology in the posterior colon
